IntAct's records for PubMed 20639876

B1: Myeloid differentiation primary response protein MyD88 (Mus musculus), P22366 (parent)
chain: MSAGDPRVGSGSLDSFMFSIPLVALNVGVRRRLSLFLNPRTPVAADWTLLAEEMGFEYLEIRELETRPDPTRSLLDAWQGRSGASVGRLLELLALLDREDILKELKSRIEEDCQKYLGKQQNQESEKPLQVARVESSVPQTKELGGITTLDDPLGQTPELFDAFICYCPNDIEFVQEMIRQLEQTDYRLKLCVSDRDVLPGTCVWSIASELIEKRCRRMVVVVSDDYLQSKECDFQTKFALSLSPGVQQKRLIPIKYKAMKKDFPSILRFITICDYTNPCTKSWFWTRLAKALSLP
B2: TIR domain-containing adapter molecule 1 (Mus musculus), Q80UF7 (parent)
chain: MDNPGPSLRGAFGILGALERDRLTHLKHKLGSLCSGSQESKLLHAMVLLALGQDTEARVSLESLKMNTVAQLVAHQWADMETTEGPEEPPDLSWTVARLYHLLAEENLCPASTRDMAYQVALRDFASQGDHQLGQLQNEAWDRCSSDIKGDPSGFQPLHSHQGSLQPPSASPAVTRSQPRPIDTPDWSWGHTLHSTNSTASLASHLEISQSPTLAFLSSHHGTHGPSKLCNTPLDTQEPQLVPEGCQEPEEISWPPSVETSVSLGLPHEISVPEVSPEEASPILPDALAAPDTSVHCPIECTELSTNSRSPLTSTTESVGKQWPITSQRSPQVPVGDDSLQNTTSSSPPAQPPSLQASPKLPPSPLSSASSPSSYPAPPTSTSPVLDHSETSDQKFYNFVVIHARADEQVALRIREKLETLGVPDGATFCEEFQVPGRGELHCLQDAIDHSGFTILLLTASFDCSLSLHQINHALMNSLTQSGRQDCVIPLLPLECSQAQLSPDTTRLLHSIVWLDEHSPIFARKVANTFKTQKLQAQRVRWKKAQEARTLKEQSIQLEAERQNVAAISAAYTAYVHSYRAWQAEMNKLGVAFGKNLSLGTPTPSWPGCPQPIPSHPQGGTPVFPYSPQPPSFPQPPCFPQPPSFPQPPSFPLPPVSSPQSQSFPSASSPAPQTPGPQPLIIHHAQMVQLGVNNHMWGHTGAQSSDDKTECSENPCMGPLTDQGEPLLETPE

Variants of: B1
Settings: with cblb_mouse Cblb
Target sequence in this assay (Q3TTA7 whole entry): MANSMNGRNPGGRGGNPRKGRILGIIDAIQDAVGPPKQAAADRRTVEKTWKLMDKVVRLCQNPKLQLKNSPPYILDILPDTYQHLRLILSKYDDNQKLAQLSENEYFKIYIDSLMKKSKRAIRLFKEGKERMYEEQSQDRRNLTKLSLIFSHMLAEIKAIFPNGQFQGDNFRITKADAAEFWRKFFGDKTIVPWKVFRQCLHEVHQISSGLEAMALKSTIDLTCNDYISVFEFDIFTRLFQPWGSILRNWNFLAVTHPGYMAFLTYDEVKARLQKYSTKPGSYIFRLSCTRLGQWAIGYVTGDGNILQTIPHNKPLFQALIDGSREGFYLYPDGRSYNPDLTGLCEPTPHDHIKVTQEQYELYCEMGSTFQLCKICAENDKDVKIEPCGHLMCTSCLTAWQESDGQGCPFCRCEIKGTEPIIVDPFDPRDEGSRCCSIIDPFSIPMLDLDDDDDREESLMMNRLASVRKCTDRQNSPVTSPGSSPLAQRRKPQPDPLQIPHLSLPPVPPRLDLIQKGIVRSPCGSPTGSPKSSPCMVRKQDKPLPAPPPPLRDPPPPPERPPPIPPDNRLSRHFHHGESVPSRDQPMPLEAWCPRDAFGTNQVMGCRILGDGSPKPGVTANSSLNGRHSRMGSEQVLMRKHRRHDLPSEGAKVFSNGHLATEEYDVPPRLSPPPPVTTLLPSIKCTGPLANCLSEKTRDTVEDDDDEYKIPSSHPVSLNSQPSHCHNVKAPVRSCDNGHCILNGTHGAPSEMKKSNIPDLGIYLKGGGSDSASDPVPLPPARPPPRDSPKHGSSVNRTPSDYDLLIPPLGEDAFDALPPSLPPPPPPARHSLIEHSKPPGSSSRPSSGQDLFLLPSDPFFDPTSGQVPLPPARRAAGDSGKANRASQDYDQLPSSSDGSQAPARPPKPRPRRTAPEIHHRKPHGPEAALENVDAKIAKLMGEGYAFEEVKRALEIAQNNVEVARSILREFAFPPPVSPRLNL

| Variant | effect of a mutation on the interaction |
| --- | --- |
| Y227F | decreasing interaction |

Variants of: B2
Settings: with cblb_mouse Cblb
Target sequence in this assay (Q3TTA7 whole entry): as above

| Variant | effect of a mutation on the interaction |
| --- | --- |
| Y375F | decreasing interaction |
